Residue numbers refer to the chain shown, from its start. Blank lines part the entries; values can stand above or below the binder they belong to.
Tests used:
[1] = biological target: T1, GGA2 (from HeLa cell lysate) (human (HeLa cells), UniProt Q9UJY4 1-613); test: GST pull-down from HeLa cell extract, immunoblot
T1 sequence (looked up): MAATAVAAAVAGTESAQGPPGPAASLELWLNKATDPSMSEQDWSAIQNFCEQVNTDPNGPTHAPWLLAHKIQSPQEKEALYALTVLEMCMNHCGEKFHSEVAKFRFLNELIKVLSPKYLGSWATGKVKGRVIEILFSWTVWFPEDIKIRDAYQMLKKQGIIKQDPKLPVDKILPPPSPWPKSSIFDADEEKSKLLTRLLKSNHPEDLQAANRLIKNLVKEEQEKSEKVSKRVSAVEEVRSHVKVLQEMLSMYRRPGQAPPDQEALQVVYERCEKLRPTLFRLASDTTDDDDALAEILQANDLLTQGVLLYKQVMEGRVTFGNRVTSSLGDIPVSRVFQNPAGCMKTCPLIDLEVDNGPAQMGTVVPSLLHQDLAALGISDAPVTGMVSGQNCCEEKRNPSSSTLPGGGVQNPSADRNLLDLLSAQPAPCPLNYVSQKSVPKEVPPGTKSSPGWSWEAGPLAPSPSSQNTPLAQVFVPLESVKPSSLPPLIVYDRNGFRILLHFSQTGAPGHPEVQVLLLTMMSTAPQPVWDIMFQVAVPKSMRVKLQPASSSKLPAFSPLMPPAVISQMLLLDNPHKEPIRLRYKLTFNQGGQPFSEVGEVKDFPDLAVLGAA

[2] = biological target: T2, GGA3 (from HeLa cell lysate) (human (HeLa cells), UniProt Q9NZ52 1-723); test: GST pull-down from HeLa cell extract, immunoblot
T2 sequence (looked up): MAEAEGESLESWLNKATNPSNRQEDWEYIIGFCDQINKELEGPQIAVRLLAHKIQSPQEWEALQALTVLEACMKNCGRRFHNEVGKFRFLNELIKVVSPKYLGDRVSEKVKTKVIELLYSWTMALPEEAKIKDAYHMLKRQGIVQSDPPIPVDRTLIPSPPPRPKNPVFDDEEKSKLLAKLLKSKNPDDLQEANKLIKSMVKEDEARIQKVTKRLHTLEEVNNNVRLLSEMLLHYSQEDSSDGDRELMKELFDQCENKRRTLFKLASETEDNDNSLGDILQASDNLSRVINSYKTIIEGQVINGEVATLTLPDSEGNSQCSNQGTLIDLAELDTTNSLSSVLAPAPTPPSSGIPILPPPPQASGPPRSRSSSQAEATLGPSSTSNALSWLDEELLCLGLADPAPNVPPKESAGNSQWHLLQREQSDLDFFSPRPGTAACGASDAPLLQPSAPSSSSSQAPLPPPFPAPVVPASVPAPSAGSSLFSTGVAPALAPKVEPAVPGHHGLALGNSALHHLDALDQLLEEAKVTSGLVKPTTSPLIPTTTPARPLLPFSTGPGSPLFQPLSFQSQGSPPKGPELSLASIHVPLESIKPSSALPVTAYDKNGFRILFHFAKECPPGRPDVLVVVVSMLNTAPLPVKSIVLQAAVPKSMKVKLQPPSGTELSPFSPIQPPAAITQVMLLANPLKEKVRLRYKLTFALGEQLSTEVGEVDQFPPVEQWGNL

binding result [1]: no binding
binding result [2]: no binding
B1: GST fusion protein of the human CIC-7 N-terminus, mutant combining LL23/24AA and LL68/69AA (2xLLAA) (other)
chain: MANVSKKVSWSGRDRDDEEAAPAARRTARPGGGTPLLNGAGPGAARQSPRSALFRVGHMSSVELDDEAADPDMDPPHPFPKEIPHNEKLLSLKYESLDYDNSENQLFLEEERRINHTAFRTVEIKR
notes: not shown: N-terminal GST tag of pGEX-5X-1 and the vector linker

binding result [1]: no binding
binding result [2]: no binding
B2: GST fusion protein of the human CIC-7 N-terminus, mutant LL68/69AA (other)
chain: B1 chain with A23L, A24L
notes: as for B1

— EP2420830B1 (Forschungsverbund Berlin e.V., dated 2016)
